{"source": "patent US20210088528A1", "about": "(published 2021)", "binders": {"B1": {"name": "human PD-1-Fc N74G T76P A132V (Fc fusion)", "chain": "PGWFLDSPDRPWNPPTFSPALLVVTEGDNATFTCSFSNTSESFVLNWYRMSPSGQPDKLAAFPEDRSQPGQDCRFRVTQLPNGRDFHMSVVRARRNDSGTYLCGAISLAPKVQIKESLRAELRVTERRAE", "notes": "also called PD-1 triple mutant; triple-mutant; not shown: Fc portion"}}, "key": {"[1]": {"biological_target": "T1, human PD-L1-His6 (human, UniProt Q9NZQ7 19-238)", "T1 construct": "extracellular domain; also called hPD-L1; B7-H1; not shown: His6 tag (by the name PD-L1-His6)", "T1 sequence (Q9NZQ7 19-238)": "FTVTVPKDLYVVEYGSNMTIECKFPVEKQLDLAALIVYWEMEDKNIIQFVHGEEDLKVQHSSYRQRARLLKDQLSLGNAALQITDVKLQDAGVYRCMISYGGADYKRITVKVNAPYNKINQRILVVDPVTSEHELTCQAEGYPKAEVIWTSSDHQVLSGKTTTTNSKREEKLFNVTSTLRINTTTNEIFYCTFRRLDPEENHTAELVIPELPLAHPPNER", "assay": "BLI (Octet RED96), PD-1-Fc on AHC biosensor, PD-L1-His6 in solution", "description": "(§1) BLI was performed on an Octet RED96® system at 30° C. in a buffer of 150 mM NaCl, 20 mM HEPES:NaOH pH 7.4, 0.1% BSA and 0.05% Tween 20. The human PD-1-Fc proteins were loaded onto anti-human IgG Fc capture (AHC) biosensors, associated in defined concentrations of human PD-L2-His6 or PD-L1-His6 proteins, and then dissociated in buffer.\n(§2) Using bio-layer interferometry (BLI), the binding of PD-L2 to wild-type PD-1 and the variants was compared (data not shown). The binding of sensor-loaded PD-1 and the loop variants to 190 nM PD-L2 and 1.1 μM PD-L1 was measured using biolayer interferometry. Corresponding PD-1-Fc proteins were loaded on anti-human IgG Fc capture (AHC) biosensors. Association was monitored for 2 min and dissociation for 2 min. Fitting of binding curves was performed in Graphpad Prism 8 software using built-in equations of “Receptor binding—kinetics” models. Means and standard deviations were calculated from 3-4 independent experiments. […] Fitting of binding curves was performed in Graphpad Prism 8 using built-in equations of “Receptor binding—kinetics” models. Means and standard deviations were calculated from 3-4 independent experiments. […] Kinetic measurements of binding of the ligands by PD-1 with BLI also permitted the determination of association constants (kₒₙ)."}, "[2]": {"biological_target": "T2, human PD-L2-His6 (human, UniProt Q9BQ51 20-220)", "T2 construct": "extracellular domain; also called hPD-L2; B7-DC; not shown: His6 tag (by the name PD-L2-His6)", "T2 sequence (looked up)": "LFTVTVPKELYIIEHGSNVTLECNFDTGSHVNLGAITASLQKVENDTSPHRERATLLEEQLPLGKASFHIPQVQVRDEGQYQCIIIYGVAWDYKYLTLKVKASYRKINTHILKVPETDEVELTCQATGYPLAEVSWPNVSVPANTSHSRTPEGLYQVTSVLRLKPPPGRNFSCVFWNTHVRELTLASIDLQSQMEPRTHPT", "assay": "BLI, PD-1-Fc on AHC biosensor", "description": "as §1, §2"}, "[3]": {"biological_target": "T1, human PD-L1-His6", "assay": "BLI, PD-1-Fc on AHC biosensor", "description": "as §1, §2"}, "[4]": {"biological_target": "T2, human PD-L2-His6", "assay": "BLI (Octet RED96), PD-1-Fc on AHC biosensor, PD-L2-His6 in solution", "description": "as §1, §2"}}}
{"binder": "B1", "values": [{"measurement": "Kd", "setting": "[1]", "value": 72, "unit": "nM"}, {"measurement": "koff", "setting": "[1]", "value": 0.036, "unit": "s⁻¹"}, {"measurement": "kon", "setting": "[1]", "value": 520000, "unit": "M⁻¹ s⁻¹"}, {"measurement": "fold increase in binding affinity against wild-type PD-1", "setting": "[2]", "value": "~200", "unit": "fold"}, {"measurement": "fold increase of kon against wild-type PD-1", "setting": "[2]", "value": 3, "unit": "fold"}, {"measurement": "fold increase of kon against wild-type PD-1", "setting": "[3]", "value": 14, "unit": "fold"}, {"measurement": "Kd", "setting": "[4]", "value": 2.6, "unit": "nM"}, {"measurement": "koff", "setting": "[4]", "value": 0.0014, "unit": "s⁻¹"}, {"measurement": "kon", "setting": "[4]", "value": 580000, "unit": "M⁻¹ s⁻¹"}]}
